Experimental findings from patent US20060286609A1 (BIOCHECK, published 2006) are described below.

Assay [1] has as its target T1, Mouse Id1: Histidine (mouse, UniProt P20067-2 1-148).
T1 construct: E. coli fusion protein (vector pGW07); also called m-Id1-His; not shown: His-tag
T1 sequence: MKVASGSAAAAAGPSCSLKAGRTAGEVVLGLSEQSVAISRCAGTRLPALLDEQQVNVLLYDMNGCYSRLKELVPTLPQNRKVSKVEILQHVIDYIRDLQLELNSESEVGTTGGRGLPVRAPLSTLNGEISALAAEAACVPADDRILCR
In words: ELISA, coated antigen; relative to human Id1. (In general: ELISA stands for enzyme-linked immunosorbent assay.)

The target in assay [2] is T2, Human Id2: Histidine (human, UniProt Q02363 1-134, limits assumed).
T2 construct: E. coli fusion protein (vector pGW07); also called h-Id2: His; not shown: His-tag
T2 sequence (looked up): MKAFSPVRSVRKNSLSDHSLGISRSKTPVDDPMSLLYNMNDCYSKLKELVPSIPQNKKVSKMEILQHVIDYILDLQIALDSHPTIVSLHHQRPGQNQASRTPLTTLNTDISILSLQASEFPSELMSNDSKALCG
In words: ELISA, coated antigen; relative to human Id1.

For another assay, the target named is T3, Mouse Id2: Histidine (mouse, UniProt P41136 1-134, limits assumed).
T3 construct: E. coli fusion protein (vector pGW07); also called m-Id2: His; not shown: His-tag
T3 sequence (looked up): T2 sequence (looked up) with S60T, A131V
In words: ELISA, coated antigen; relative to human Id1.

The target in another assay is T4, Mouse Id4: Histidine (mouse, UniProt P41139 1-161, limits assumed).
T4 construct: E. coli fusion protein (vector pGW07); also called m-Id4: His; not shown: His-tag
T4 sequence (looked up): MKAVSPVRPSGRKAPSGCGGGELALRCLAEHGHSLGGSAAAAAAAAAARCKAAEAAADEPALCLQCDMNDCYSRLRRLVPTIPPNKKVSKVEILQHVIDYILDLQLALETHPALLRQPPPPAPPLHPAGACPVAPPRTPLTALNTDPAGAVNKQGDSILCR
In words: ELISA, coated antigen; relative to human Id1.

Assay [3] deals with T5, Human Id3: Histidine (human, UniProt Q02535 1-119, limits assumed).
T5 construct: E. coli fusion protein (vector pGW07); also called h-Id3: His; not shown: His-tag
T5 sequence (looked up): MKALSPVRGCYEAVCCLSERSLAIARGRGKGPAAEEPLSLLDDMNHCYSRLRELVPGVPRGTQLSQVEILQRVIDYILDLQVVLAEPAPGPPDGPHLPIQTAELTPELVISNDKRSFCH
The experiment in a line: ELISA, coated antigen; relative to human Id1.

Another assay concerns the target T6, Mouse Id3: Histidine (mouse, UniProt P41133 1-119, limits assumed).
T6 construct: E. coli fusion protein (vector pGW07); also called m-Id3: His; not shown: His-tag
T6 sequence (looked up): T5 sequence (looked up) with G31S, A33S, A34T, N112K
In words: ELISA, coated antigen; relative to human Id1.

For the next assay, the target named is T7, Human Id4: Histidine (human, UniProt P47928 1-161, limits assumed).
T7 construct: E. coli fusion protein (vector pGW07); also called h-Id4: His; not shown: His-tag
T7 sequence (looked up): T4 sequence (looked up) with L125H, A130T, V133A
The experiment in a line: ELISA, coated antigen; relative to human Id1.

The target of assay [4] is T1, Mouse Id1: Histidine. The experiment in a line: ELISA, coated antigen, Ab 0 ug/ml (blank). On the procedure:
(§1) Incubate plates at 2-8° C. overnight (16-24 hours). [0145] 11. Shake off the BSA solution. [0146] 12. Dispense 250 μL of 2.5% sucrose solution into each well. [0147] 13. Incubate plates at 2-8° C. for 4 hours. [0148] 14. Shake off sucrose solution. [0149] 15. Dry in vacuum at room temperature overnight. Screening Method [0150] 1. Dispense 100 μL of antibody diluent, diluted rabbit polyclonal anti-Id1 into appropriate wells. […] 2. Incubate at room temperature with mechanical shaking at 750 rpm for 90 minutes. [0152] 3. Remove the incubation mixture by flicking plate content into an appropriate waste container, followed by rinsing the wells 5 times with distilled water. […] 4. Strike the wells sharply onto absorbent paper or paper towels to remove all residual water droplets. [0154] 5. Dispense 100 μL of Goat Anti-Rabbit IgG-HRP Conjugate Reagent into each well. Gently mix for 5 seconds. [0155] 6. Incubate at room temperature with mechanical shaking at 750 rpm for 90 minutes. […] 7. Repeat procedures 3 and 4. [0157] 8. Dispense 100 μL of TMB Reagent into each well. Gently mix for 5 seconds. [0158] 9. Incubate at room temperature with mechanical shaking at 750 rpm for 20 minutes. [0159] 10. Add 100 μL of Stop Solution (1N HCl) into each well. [0160] 11. Gently mix for 10 seconds to ensure a complete mixing. […] 12. Read optical density (absorbance) at 450 nm. Results from this assay were used to select the rabbit sera with the highest antibodies titer that selectively reacts with mouse Id1 or human Id1 or both.
(§2) A comparison was carried out between the reactivity of the rabbit monoclonal anti-mouse Id1, clone #BCH-1/#37-2, of this invention and the mouse monoclonal anti-mouse/human Id1 from BD Pharmingen with the following antigens prepared in Example 5: mouse Id1:His, human Id1:His, human Id2:His, human Id3:His, and GST. These antigens and protein were used to coat the wells.
(§3) Materials and methods were those described in Example 9 except (a) Pharmingen's mouse monoclonal anti-mouse Id1 was used in addition to the rabbit monoclonal anti-mouse Id1 (Example 10), and (b) goat anti-mouse IgG-HRP conjugate was used to process the wells treated with the Pharmingen monoclonal antibody and polyclonal goat anti-rabbit IgG-HRP conjugate was used to process wells treated with rabbit monoclonal anti-mouse Id1.

Assay [5] addresses T2, Human Id2: Histidine. In words: ELISA, coated antigen, Ab 0 ug/ml (blank). The method, then:
as §1, §2, §3

In assay [6] the target is T8, glutathione S-transferase (GST) (UniProt P08515 1-218 = GST).
T8 construct: Coated on wells as control for the fusion partner of the immunogen
In words: ELISA, coated antigen, Ab 0 ug/ml (blank). The method, then:
as §1, §2, §3

The target of assay [7] is T5, Human Id3: Histidine. The experiment in a line: ELISA, coated antigen, Ab 0 ug/ml (blank). On the procedure:
as §1, §2, §3

Positions count from the first letter of the chain named.

T8 sequence (P08515 whole entry, the tested form may be a part): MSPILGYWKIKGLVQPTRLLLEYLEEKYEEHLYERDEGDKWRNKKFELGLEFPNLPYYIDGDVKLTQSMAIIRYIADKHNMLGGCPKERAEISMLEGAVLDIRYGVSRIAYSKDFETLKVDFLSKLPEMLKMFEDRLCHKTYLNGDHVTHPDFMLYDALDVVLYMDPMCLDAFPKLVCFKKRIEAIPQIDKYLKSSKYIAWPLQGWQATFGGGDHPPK

In the case of “rabbit monoclonal anti-human Id1, clone #BCH-2/#5-3 (antibody)”, the Cross-reactivity (%) in the assay with Mouse Id1: Histidine [1], with Human Id2: Histidine [2], with Mouse Id2: Histidine, with Mouse Id4: Histidine, with Human Id3: Histidine [3] and with Mouse Id3: Histidine was less than 1% throughout. The Cross-reactivity (%) with Human Id4: Histidine is less than 1%.

B1: rabbit monoclonal anti-mouse Id1, clone #BCH-1/#37-2 (antibody, V domains shown)
VH: QSVEESGGRLVTPGTPLTLTCKVSGFDINSYAMDWFRQAPGKGLEWIGMMSTRGNTYYTSWAKGRFTISKTSSTTVDLKMTSLTTEDTATYFCARGGLWGPGTLVTVSS
VL: RVLTQTASPVSAAVGGTVTINCQASQSVYNGNRLGWYQLKPGQSPKELIHDASTLASGVPSRFRGSGSGTQFTLTINDVQCDDAATYYCVGSYACSTGDCNVFGGGTEVVVK
notes: Rabbit IgG from hybridoma, Protein G purified; also called m Id1 MoAb 37-2; Rabbit Monoclonal Anti-Mouse Id1 (#37-2)
B1: the A450 with Mouse Id1: Histidine [4] is 0.047 A450; with Human Id2: Histidine [5], 0.045 A450; in assay [6], 0.047 A450; with Human Id3: Histidine [7], 0.046 A450.
